Laboratory results published in IntAct's records for PubMed 22904282.

B1: DNA-directed RNA polymerase subunit beta (Mycobacterium tuberculosis (strain ATCC 25618 / P9WGY9 (parent)
chain: MLEGCILADSRQSKTAASPSPSRPQSSSNNSVPGAPNRVSFAKLREPLEVPGLLDVQTDSFEWLIGSPRWRESAAERGDVNPVGGLEEVLYELSPIEDFSGSMSLSFSDPRFDDVKAPVDECKDKDMTYAAPLFVTAEFINNNTGEIKSQTVFMGDFPMMTEKGTFIINGTERVVVSQLVRSPGVYFDETIDKSTDKTLHSVKVIPSRGAWLEFDVDKRDTVGVRIDRKRRQPVTVLLKALGWTSEQIVERFGFSEIMRSTLEKDNTVGTDEALLDIYRKLRPGEPPTKESAQTLLENLFFKEKRYDLARVGRYKVNKKLGLHVGEPITSSTLTEEDVVATIEYLVRLHEGQTTMTVPGGVEVPVETDDIDHFGNRRLRTVGELIQNQIRVGMSRMERVVRERMTTQDVEAITPQTLINIRPVVAAIKEFFGTSQLSQFMDQNNPLSGLTHKRRLSALGPGGLSRERAGLEVRDVHPSHYGRMCPIETPEGPNIGLIGSLSVYARVNPFGFIETPYRKVVDGVVSDEIVYLTADEEDRHVVAQANSPIDADGRFVEPRVLVRRKAGEVEYVPSSEVDYMDVSPRQMVSVATAMIPFLEHDDANRALMGANMQRQAVPLVRSEAPLVGTGMELRAAIDAGDVVVAEESGVIEEVSADYITVMHDNGTRRTYRMRKFARSNHGTCANQCPIVDAGDRVEAGQVIADGPCTDDGEMALGKNLLVAIMPWEGHNYEDAIILSNRLVEEDVLTSIHIEEHEIDARDTKLGAEEITRDIPNISDEVLADLDERGIVRIGAEVRDGDILVGKVTPKGETELTPEERLLRAIFGEKAREVRDTSLKVPHGESGKVIGIRVFSREDEDELPAGVNELVRVYVAQKRKISDGDKLAGRHGNKGVIGKILPVEDMPFLADGTPVDIILNTHGVPRRMNIGQILETHLGWCAHSGWKVDAAKGVPDWAARLPDELLEAQPNAIVSTPVFDGAQEAELQGLLSCTLPNRDGDVLVDADGKAMLFDGRSGEPFPYPVTVGYMYIMKLHHLVDDKIHARSTGPYSMITQQPLGGKAQFGGQRFGEMECWAMQAYGAAYTLQELLTIKSDDTVGRVKVYEAIVKGENIPEPGIPESFKVLLKELQSLCLNVEVLSSDGAAIELREGEDEDLERAAANLGINLSRNESASVEDLA
partner: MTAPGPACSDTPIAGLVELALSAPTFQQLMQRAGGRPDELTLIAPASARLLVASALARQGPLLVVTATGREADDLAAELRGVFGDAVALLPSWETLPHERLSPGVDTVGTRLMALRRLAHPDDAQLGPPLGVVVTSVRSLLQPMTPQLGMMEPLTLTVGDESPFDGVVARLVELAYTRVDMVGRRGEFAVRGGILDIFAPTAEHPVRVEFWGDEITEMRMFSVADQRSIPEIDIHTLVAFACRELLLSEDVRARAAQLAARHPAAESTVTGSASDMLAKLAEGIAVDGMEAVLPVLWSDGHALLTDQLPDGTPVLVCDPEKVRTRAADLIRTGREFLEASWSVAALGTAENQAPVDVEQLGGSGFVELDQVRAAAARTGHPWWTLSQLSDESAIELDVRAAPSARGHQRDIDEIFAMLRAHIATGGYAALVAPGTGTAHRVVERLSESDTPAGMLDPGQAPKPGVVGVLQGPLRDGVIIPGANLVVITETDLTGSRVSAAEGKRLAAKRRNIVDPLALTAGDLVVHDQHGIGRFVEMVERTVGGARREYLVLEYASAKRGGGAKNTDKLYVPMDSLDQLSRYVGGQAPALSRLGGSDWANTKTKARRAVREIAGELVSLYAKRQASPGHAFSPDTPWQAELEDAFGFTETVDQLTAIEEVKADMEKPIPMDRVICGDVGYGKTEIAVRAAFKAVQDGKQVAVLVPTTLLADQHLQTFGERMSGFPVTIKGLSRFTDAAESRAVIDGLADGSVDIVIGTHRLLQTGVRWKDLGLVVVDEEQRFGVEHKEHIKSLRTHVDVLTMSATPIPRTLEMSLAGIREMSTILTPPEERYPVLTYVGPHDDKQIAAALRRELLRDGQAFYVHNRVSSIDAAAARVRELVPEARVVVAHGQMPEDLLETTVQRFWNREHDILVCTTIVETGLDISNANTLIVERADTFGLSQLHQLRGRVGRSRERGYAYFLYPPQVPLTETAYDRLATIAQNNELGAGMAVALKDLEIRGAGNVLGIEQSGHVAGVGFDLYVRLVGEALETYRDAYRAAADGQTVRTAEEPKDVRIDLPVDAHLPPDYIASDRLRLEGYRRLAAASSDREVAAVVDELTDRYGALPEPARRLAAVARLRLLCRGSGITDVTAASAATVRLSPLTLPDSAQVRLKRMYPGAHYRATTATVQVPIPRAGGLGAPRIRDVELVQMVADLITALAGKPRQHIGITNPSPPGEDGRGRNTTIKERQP
B2: DNA-directed RNA polymerase subunit beta (Mycobacterium tuberculosis (strain ATCC 25618 / P9WGY9 (parent)
chain: B1 chain
B3: RNA polymerase-binding transcription factor CarD (Mycobacterium tuberculosis (strain ATCC 25618 / P9WJG3 (parent)
chain: MIFKVGDTVVYPHHGAALVEAIETRTIKGEQKEYLVLKVAQGDLTVRVPAENAEYVGVRDVVGQEGLDKVFQVLRAPHTEEPTNWSRRYKANLEKLASGDVNKVAEVVRDLWRRDQERGLSAGEKRMLAKARQILVGELALAESTDDAKAETILDEVLAAAS

Variants of: B1
Settings: with mfd_myctu mfd
In the case of I147A, the “effect of a mutation on the interaction” value is reported as “disrupting interaction”.
With E138R the “effect of a mutation on the interaction” value was “disrupting interaction”.
S149A was tested, and the “effect of a mutation on the interaction” value was “decreasing interaction strength”.

Variants of: B2
Settings: with card_myctu carD
S149A was tested, and the “effect of a mutation on the interaction” value was “decreasing interaction”.
With E138R the “effect of a mutation on the interaction” value was “disrupting interaction”.
I147A was tested, and the “effect of a mutation on the interaction” value was “disrupting interaction”.

Variants of: B3
Settings: with rpob_myctu rpoB
In the case of R25E, the “effect of a mutation on the interaction” value is reported as “decreasing interaction strength”.
For R47E, the “effect of a mutation on the interaction” value was “decreasing interaction strength”.
